# Results taken from patent US20220242939A1 (BIOARCTIC, published 2022).
# Substitutions are numbered along the chain they refer to. Non-standard residues stand in square brackets, D forms with d. No end group written: not given here. Ahx = NCCCCCC(=O)O
# T1: L198 N-terminal neo-epitope peptide LAGQPL-Acp-C (SEQ ID NO:52) conjugated to BSA (human, not fully specified (residue 8); printed as LAGQPL-Acp-C; also: C-terminal Cys conjugated to BSA carrier)
# T1 construct: BSA carrier; also called L198-BSA peptide
# T1 peptide: LAGQPL[Ahx]C
# T2: negative control peptide AATVGSLAGQPLQER-Acp-C (SEQ ID NO:53) conjugated to BSA (human, not fully specified (residue 17); printed as AATVGSLAGQPLQER-Acp-C; also: C-terminal Cys conjugated to BSA carrier)
# T2 construct: BSA carrier; also called 192-206 BSA-conjugated peptide
# T2 peptide: AATVGSLAGQPLQER[Ahx]C
# B1: 23D5, recombinant IgG2c antibody (antibody, V domains shown)
# VH: EVQLVESGGGLVKPGGSLKLSCSASGFTFSRYAMSWVRQSPEKRLEWVAEINSGGSYSFYSDTVTGRFTISRDNAKNTLFLEMSSLRSEDTAIYYCARQLSGTDYYGTDYWGQGTSVTVSS
# VL: DVLMTQTPLSLPVSHGDQASISCRSSQSLLYSNGNTYLEWYLQKPGQSPKLLIYKVSNRFSGVPDRFSGSGSGTDFTLKISRVEAEDLGVYYCFQGSHVPYTFGGGTKLEIK
# B2: 28F2, recombinant IgG2c antibody (antibody, V domains shown)
# VH: QIQLVQSGPDLKKPGETVKISCKASGYTFTNYAMHWMKQAPGKALKWMGWINTYTGEPTFADDFKGRFAFSLETSASTAYLQINSLKNEDMATYFCAREGYYDRSHYFDYWGQGTTLTVSS
# VL: B1 VL with H15L, Q27L, L30V, Y31H, S32G, N33D, F94L, V99I, Y101F, G105S
# B3: 7C7, recombinant IgG2c antibody (antibody, V domains shown)
# VH: EVQLVESGGGLVKPGGSLRLSCAASGFTFSSFAMSWVRQSPERRLEWVAEISRGGGYAFYSDTVTGRFTISRDNARNTLFLEMGSLRSEDTAMYYCSRQLTGTDYYAMDYWGQGTSVTVSS
# VL: B1 VL with M4L, P12F, H15L, L29I, L30V, S32T, H98Q, I111L
# B4: 4E6, recombinant IgG2c antibody (antibody, V domains shown)
# VH: EVQLVESGGDLVKPGGSLKLSCAASGFTFSSYAMSWVRQSPEKRLEWVAEISGSGSRDHYTDSVTGRFTVSRDNAKNTLYLEMSSLRSEDTAIYYCARQLTGTDYYGTDYWGQGTSVTVSS
# VL: B1 VL with T7I, H15L, L29I, L30V, K44R, V99L
# notes: also called recombinant anti-G200 antibody 4E6
# B5: 17G4, recombinant IgG2c antibody (antibody, V domains shown)
# VH: B1 VH with S101T
# VL: B1 VL
# B6: 7B10, recombinant IgG2c antibody (antibody, V domains shown)
# VH: AVQLVESGGGLVKPGRSLKLSCAASGFTFSSYAMSWVRQFPDKRLDWVAEISSGGGSTNYLDTVTGRFTISRDNAKNTLYLEMNSLRSEDTAMYYCARQLVGTDYYGTDYWGQGTSVTVSS
# VL: B1 VL with H15L, S28N, L29I, L30V
# notes: also called 7610
# Target: T3, recombinant C-terminal ApoE fragment G200-HIS (ApoE-G200-H299-10xHIS) (human, UniProt P02649 218-317)
# T3 construct: also called G200-HIS fragment
# Assay: second direct ELISA, G200-HIS coated at 0.1 µM
# Experimental: (§1) The screening was performed according to standard ELISA protocols. Briefly, 1 μg/ml solutions of BSA-conjugated neo-epitope peptides, recombinant C-terminal ApoE fragment, negative control peptide and full-length ApoE were prepared by dilution in PBS. 50 μl/well were added to an ELISA half-area 96 well microtiter plate, the plate was sealed with adhesive sealer and incubated over night at 4° C. After discarding the solution, the plates were blocked with 150 μl/well of protein-free blocking solution (Pierce) for 1 h at room temperature with shake (900 rpm). The plates were washed four times with washing buffer containing 0.28 mM NaH₂PO₄, 2.5 mM Na₂HPO₄, 150 mM NaCl, 0.1% TWEEN®-20 and 0.0075% Kathon CG. Generated recombinant antibodies of interest were serially diluted 3-fold with a starting dilution at 0.5 μg/ml (mixed 1:1 with dilution buffer: PBS with 0.1% BSA and 0.05% TWEEN®-20). An anti-ApoE C-terminal antibody was used as a reference antibody (ApoE E-8 mouse monoclonal, cat. no. sc-393302; Santa Cruz Biotechnology). 50 μl/well were added into the ELISA plates and incubated for 2 h at room temperature with shake (900 rpm). The plates were washed four times as described previously. […] After another wash (as described previously), 50 μl/well of K-Blue® aqueous substrate (Neogen) were added, and the reaction was stopped after 5-15 min with 50 μl/well of 0.5 M […]. The optical density at 450 nm was read using an ELISA reader (Tecan). The optical density was plotted against the antibody concentration to generate concentration-response curves (FIG. 16).
# (§2) These were added in the same molarity (0.1 μM) to provide an equal number of molecules available for binding by the antibodies (BSA-coupled peptides were coated at 1 μg/ml as before).
# T3 sequence (P02649 other isoform, or with tags, fused parts or gaps limits assumed): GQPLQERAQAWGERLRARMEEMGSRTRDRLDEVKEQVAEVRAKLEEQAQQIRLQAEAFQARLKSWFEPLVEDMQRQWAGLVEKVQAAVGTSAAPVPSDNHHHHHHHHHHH
row,Binder,EC50 [µg/mL]
1,B1,0.0101
2,B2,0.0215
3,B3,0.0181
4,B4,0.0095
5,B5,0.0079
6,B6,0.0107

# Target: T1, L198 N-terminal neo-epitope peptide …
# Assay: direct ELISA, target coated at 1 ug/ml, antibody in 3-fold dilutions from 500 ng/ml, OD 450 nm
# Experimental: (§3) Selectivity evaluation of recombinant antibodies by direct ELISA: The direct ELISA described below was used to evaluate the binding selectivity of the recombinant antibodies produced in Example 11.
# as §1, with “(Tecan).” for “(Tecan). The optical density was plotted against the antibody concentration to generate concentration-response curves (FIG. 16).”
row,Binder,binding result
1,B1,no binding (tested: 500 ng/ml)
2,B2,no binding (tested: 500 ng/ml)
3,B3,no binding (tested: 500 ng/ml)
4,B4,no binding (tested: 500 ng/ml)
5,B5,no binding (tested: 500 ng/ml)
6,B6,no binding (tested: 500 ng/ml)

# Target: T2, negative control peptide …
# Assay: as above
# Experimental: as §3
# as §1, with “(Tecan).” for “(Tecan). The optical density was plotted against the antibody concentration to generate concentration-response curves (FIG. 16).”
row,Binder,binding result
1,B1,no binding (tested: 500 ng/ml)
2,B2,no binding (tested: 500 ng/ml)
3,B3,no binding (tested: 500 ng/ml)
4,B4,no binding (tested: 500 ng/ml)
5,B5,no binding (tested: 500 ng/ml)
6,B6,no binding (tested: 500 ng/ml)

# Target: T4, full-length ApoE in human brain extract from Alzheimer's disease patients (human, UniProt P02649 19-317)
# T4 construct: mature; Endogenous protein on Western blot or in solution (IP); also called ApoE full-length protein
# Assay: Western blot of AD brain RIPA 2% SDS extract; recombinant antibody at 2 ug/ml as primary antibody
# T4 sequence (P02649 19-317): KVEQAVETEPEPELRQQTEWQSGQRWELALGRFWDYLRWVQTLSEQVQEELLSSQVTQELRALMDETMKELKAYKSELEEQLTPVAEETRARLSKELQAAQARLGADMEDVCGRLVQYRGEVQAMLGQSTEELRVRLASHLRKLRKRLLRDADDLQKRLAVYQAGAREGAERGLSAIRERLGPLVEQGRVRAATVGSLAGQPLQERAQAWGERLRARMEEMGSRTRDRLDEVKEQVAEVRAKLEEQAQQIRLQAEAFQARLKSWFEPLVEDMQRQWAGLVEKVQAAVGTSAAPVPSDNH
row,Binder,binding result
1,B1,no binding (tested: 2 ug/ml (text))
2,B2,no binding (tested: 2 ug/ml (text))
3,B3,no binding (tested: 2 ug/ml (text))
4,B4,no binding (tested: 2 ug/ml (text))
5,B5,no binding (tested: 2 ug/ml (text))
6,B6,no binding (tested: 2 ug/ml (text))

# Target: T5, recombinant full-length ApoE4 (aa 1-299; SEQ ID NO:45; Abcam cat. no. ab50243) (human, UniProt P02649 19-317)
# T5 construct: Bought protein; also called recombinant ApoE4 full-length protein
# Assay: direct ELISA, second protocol; proteins coated at 0.1 uM, BSA peptides at 1 ug/ml; antibody in 3-fold dilutions from 3000 ng/ml; blank reduced OD 450 nm
# Experimental: as §1, with “Generated recombinant antibodies of interest were serially diluted 3-fold with a starting dilution at 0.5 μg/ml (mixed 1:1 with dilution buffer: PBS with 0.1% BSA and 0.05% TWEEN®-20).” left out
# as §2
# T5 sequence (P02649 19-317 C130R limits assumed): as the sequence (P02649 19-317) above, with C112R counted along it
row,Binder,binding result
1,B1,no binding (tested: 3000 ng/ml)
2,B2,no binding (tested: 3000 ng/ml)
3,B3,no binding (tested: 3000 ng/ml)
4,B4,no binding (tested: 3000 ng/ml)
5,B5,no binding (tested: 3000 ng/ml)
6,B6,no binding (tested: 3000 ng/ml)
